Experimental data taken from patent publication US20220411483A1 (Chugai, published 2022).
Substitutions are numbered along the chain they refer to. Blank lines part the entries; values can stand above or below the binder they belong to.

What was measured:
FcgRIIb = target: T1, FcgRIIb (human, UniProt P31994 43-217); assay: SPR, amount bound per captured antibody
T1 construct: extracellular domain; also called FcγRIIb
T1 sequence (looked up): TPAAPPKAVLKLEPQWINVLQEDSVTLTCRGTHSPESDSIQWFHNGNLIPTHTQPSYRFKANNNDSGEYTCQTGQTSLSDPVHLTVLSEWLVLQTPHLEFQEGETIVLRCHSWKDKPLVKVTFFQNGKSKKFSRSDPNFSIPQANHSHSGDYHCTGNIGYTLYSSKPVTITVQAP

FcgRIIaR = target: T2, FcgRIIaR (human, UniProt P12318 34-217); assay: SPR, amount bound per captured antibody
T2 construct: extracellular domain; also called FcγRIIa R type; FcγRIIa (R type)
T2 sequence (looked up): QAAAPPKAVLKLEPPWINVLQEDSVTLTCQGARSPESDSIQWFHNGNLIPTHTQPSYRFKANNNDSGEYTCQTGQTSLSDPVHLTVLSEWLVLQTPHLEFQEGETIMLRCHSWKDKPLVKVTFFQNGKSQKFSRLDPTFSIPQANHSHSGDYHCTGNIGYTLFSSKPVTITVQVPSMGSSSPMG

[1] = target: T3, human FcγRIIa R type extracellular domain with C-terminal His tag (human, UniProt P12318 34-217); assay: SPR, antibody captured, FcgR analyte
T3 construct: extracellular domain; also called FcgRIIaR
T3 sequence (looked up): T2 sequence (looked up)

[2] = target: T4, human FcγRIIb extracellular domain with C-terminal His tag (human, UniProt P31994 43-217); assay: SPR, antibody captured, FcgR analyte
T4 construct: extracellular domain; also called FcgRIIb
T4 sequence (looked up): T1 sequence (looked up)

[3] = target: T5, human FcγRIa extracellular domain with C-terminal His tag (human, UniProt P12314 16-292); assay: SPR, antibody captured, FcgR analyte
T5 construct: Whole entry named; also called FcgRIa
T5 sequence (P12314 16-292): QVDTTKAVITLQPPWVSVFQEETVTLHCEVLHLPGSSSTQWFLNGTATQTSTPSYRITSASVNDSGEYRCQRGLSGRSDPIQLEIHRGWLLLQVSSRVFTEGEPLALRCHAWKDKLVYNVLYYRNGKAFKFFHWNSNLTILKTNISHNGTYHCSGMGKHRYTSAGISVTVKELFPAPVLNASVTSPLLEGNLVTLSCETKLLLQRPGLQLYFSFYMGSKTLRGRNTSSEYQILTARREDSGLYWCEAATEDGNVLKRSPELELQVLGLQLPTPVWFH

[4] = target: T6, human FcγRIIa H type extracellular domain with C-terminal His tag (human, UniProt P12318 34-217); assay: SPR, KD of IL6R-G1d/IL6R-L divided by KD of variant
T6 construct: extracellular domain; also called FcgRIIaH
T6 sequence (looked up): T2 sequence (looked up) with R134H

[5] = target: T3, human FcγRIIa R type extracellular …; assay: as above
[6] = target: T4, human FcγRIIb extracellular domain with …; assay: as above
[7] = target: T5, human FcγRIa extracellular domain with …; assay: as above
[8] = target: T7, human FcγRIIIa V type extracellular domain with C-terminal His tag (human, UniProt P08637 17-208); assay: as above
T7 construct: extracellular domain; also called FcgRIIIaV
T7 sequence (P08637 17-208 F176V): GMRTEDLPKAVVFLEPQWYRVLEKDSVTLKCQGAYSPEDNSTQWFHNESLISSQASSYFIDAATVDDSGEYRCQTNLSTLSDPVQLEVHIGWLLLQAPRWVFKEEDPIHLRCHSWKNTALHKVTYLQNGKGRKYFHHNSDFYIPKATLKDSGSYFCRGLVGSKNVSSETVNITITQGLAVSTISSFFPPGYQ

B1: IL6R-P606/IL6R-L (antibody, human IgG1, kappa)
heavy: QVQLQESGPGLVKPSETLSLTCAVSGHSISHDHAWSWVRQPPGEGLEWIGFISYSGITNYNPSLQGRVTISRDNSKNTLYLQMNSLRAEDTAVYYCARSLARTTAMDYWGEGTLVTVSSASTKGPSVFPLAPSSKSTSGGTAALGCLVKDYFPEPVTVSWNSGALTSGVHTFPAVLQSSGLYSLSSVVTVPSSSLGTQTYICNVNHKPSNTKVDKKVEPKSCDKTHTCPPCPAPDLLGGDKVFLFPPKPKDTLMISRTPEVTCVVIDVAEEDGEVKFNWYVDGVEVHNAKTKPREEQYNSTYRVVSVLTVLHQDWLNGKEYKCKVSNKALPAPIEKTISKAKGQPREPQVYTLPPSRDELTKNQVSLTCLVKGFYPSDIAVEWESNGQPENNYKTTPPVLDSDGSFFLYSKLTVDKSRWQQGNVFSCSVMHEALHNHYTQKSLSLSP
light: not shown
Relative FcgRIIb-binding Activity (FcgRIIb): 7.7 IL6R-G1d/IL6R-L=100
Relative FcgRIIaR-binding Activity (FcgRIIaR): 4.8 IL6R-G1d/IL6R-L=100

B2: IL6R-P778/IL6R-L (antibody, human IgG1, kappa)
heavy: B1 heavy with K241S, K324E
light: not shown
Kd [1]: 1300 nM
Kd [2]: 25 nM
Kd [3]: 0.96 nM
Relative FcgRIIaH-binding Activity [4]: 0.01
Relative FcgRIIaR-binding Activity [5]: 0.85
Relative FcgRIIb-binding Activity [6]: 84
Relative FcgRIa-binding Activity [7]: 0.333
Relative FcgRIIIaV-binding Activity [8]: 0.009

B3: IL6R-P627/IL6R-L (antibody, human IgG1, kappa)
heavy: B1 heavy with G238Q, K241S
light: not shown
Relative FcgRIIb-binding Activity (FcgRIIb): 138 IL6R-G1d/IL6R-L=100
Relative FcgRIIaR-binding Activity (FcgRIIaR): 48.5 IL6R-G1d/IL6R-L=100

B5: IL6R-P624/IL6R-L (antibody, human IgG1, kappa)
heavy: B1 heavy with L236N, K241S
light: not shown
Relative FcgRIIb-binding Activity (FcgRIIb): 173 IL6R-G1d/IL6R-L=100
Relative FcgRIIaR-binding Activity (FcgRIIaR): 67.1 IL6R-G1d/IL6R-L=100

B6: IL6R-P632/IL6R-L (antibody, human IgG1, kappa)
heavy: B1 heavy with K241S, D267R
light: not shown
Relative FcgRIIb-binding Activity (FcgRIIb): 8 IL6R-G1d/IL6R-L=100
Relative FcgRIIaR-binding Activity (FcgRIIaR): 4.1 IL6R-G1d/IL6R-L=100

B9: IL6R-P776/IL6R-L (antibody, human IgG1, kappa)
heavy: B1 heavy with D235E, K241S, I266V, A269S, E270H, K324E
light: not shown
Kd [1]: 4000 nM
Kd [2]: 280 nM
Kd [3]: 5.2 nM
Relative FcgRIIaH-binding Activity [4]: 0.006
Relative FcgRIIaR-binding Activity [5]: 0.28
Relative FcgRIIb-binding Activity [6]: 7.5
Relative FcgRIa-binding Activity [7]: 0.062
Relative FcgRIIIaV-binding Activity [8]: 0.01

B11: IL6R-P633/IL6R-L (antibody, human IgG1, kappa)
heavy: B1 heavy with K241S, D267S
light: not shown
Relative FcgRIIb-binding Activity (FcgRIIb): 56.4 IL6R-G1d/IL6R-L=100
Relative FcgRIIaR-binding Activity (FcgRIIaR): 15.3 IL6R-G1d/IL6R-L=100

B12: IL6R-P607/IL6R-L (antibody, human IgG1, kappa)
heavy: B1 heavy with G239D, Y298D, A332R, P398M
light: not shown
Relative FcgRIIb-binding Activity (FcgRIIb): 21.8 IL6R-G1d/IL6R-L=100
Relative FcgRIIaR-binding Activity (FcgRIIaR): 6.1 IL6R-G1d/IL6R-L=100

Continued, values first:

Kd [1]: 2200 nM
Kd [2]: 50 nM
Kd [3]: 3.4 nM
Relative FcgRIIaH-binding Activity [4]: 0.009
Relative FcgRIIaR-binding Activity [5]: 0.5
Relative FcgRIIb-binding Activity [6]: 42
Relative FcgRIa-binding Activity [7]: 0.094
Relative FcgRIIIaV-binding Activity [8]: 0.011
B4: IL6R-P779/IL6R-L (antibody, human IgG1, kappa)
heavy: B1 heavy with D235E, K241S, K324A
light: not shown

Kd [1]: 11000 nM
Kd [2]: 9000 nM
Kd [3]: 17 nM
Relative FcgRIIaH-binding Activity [4]: 0.003
Relative FcgRIIaR-binding Activity [5]: 0.1
Relative FcgRIIb-binding Activity [6]: 0.2
Relative FcgRIa-binding Activity [7]: 0.019
Relative FcgRIIIaV-binding Activity [8]: 0.007
B7: IL6R-P781/IL6R-L (antibody, human IgG1, kappa)
heavy: B1 heavy with D235E, K241S, I266V, A269S, E270H, G273P, S300A, A329G, A332S, P333S
light: not shown

Kd [1]: 1700 nM
Kd [2]: 34 nM
Kd [3]: 2.1 nM
Relative FcgRIIaH-binding Activity [4]: 0.008
Relative FcgRIIaR-binding Activity [5]: 0.65
Relative FcgRIIb-binding Activity [6]: 61.8
Relative FcgRIa-binding Activity [7]: 0.152
Relative FcgRIIIaV-binding Activity [8]: 0.008
B8: IL6R-P780/IL6R-L (antibody, human IgG1, kappa)
heavy: B1 heavy with D235E, K241S, K324E
light: not shown

Kd [1]: 21000 nM
Kd [2]: 2200 nM
Kd [3]: 88 nM
Relative FcgRIIaH-binding Activity [4]: 0.007
Relative FcgRIIaR-binding Activity [5]: 0.05
Relative FcgRIIb-binding Activity [6]: 1
Relative FcgRIa-binding Activity [7]: 0.004
Relative FcgRIIIaV-binding Activity [8]: 0.01
B10: IL6R-P784/IL6R-L (antibody, human IgG1, kappa)
heavy: B1 heavy with G239D, K241S, I266V, A269S, E270H, G273P, A329G, A332S, P333S
light: not shown

Kd [1]: 39000 nM
Kd [2]: 3800 nM
Kd [3]: 160 nM
Relative FcgRIIaH-binding Activity [4]: 0.006
Relative FcgRIIaR-binding Activity [5]: 0.03
Relative FcgRIIb-binding Activity [6]: 0.6
Relative FcgRIa-binding Activity [7]: 0.002
Relative FcgRIIIaV-binding Activity [8]: 0.006
B13: IL6R-P783/IL6R-L (antibody, human IgG1, kappa)
heavy: B1 heavy with D235E, G239D, K241S, I266V, A269S, E270H, G273P, A329G, A332S, P333S
light: not shown
